Assay [1] concerns the target T1, biotinylated human TROP2 antigen (human, UniProt P09758 27-274, C-terminal Avi tag sequence biotinylated).
T1 construct: extracellular domain
T1 sequence (looked up): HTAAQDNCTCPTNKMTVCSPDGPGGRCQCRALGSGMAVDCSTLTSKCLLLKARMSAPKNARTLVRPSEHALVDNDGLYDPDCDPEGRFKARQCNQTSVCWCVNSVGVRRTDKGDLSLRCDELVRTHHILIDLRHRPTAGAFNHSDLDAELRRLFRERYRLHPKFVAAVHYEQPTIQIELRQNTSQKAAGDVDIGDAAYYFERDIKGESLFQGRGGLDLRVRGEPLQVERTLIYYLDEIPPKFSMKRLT
The assay can be described thus: ELISA, immobilised biotinylated human TROP2 antigen, anti-FLAG-HRP detection; without MMP1.
Description: (§1) NeutrAvidin (Thermo Fisher Scientific) diluted to 1 μg/ml with PBS was added at 50 μl/well to a 96-well Maxi-sorp plate (Black, Nunc) and immobilized at 4° C. overnight. The plate was washed with PBS containing 0.05% (w/v) Tween-20 (BioRad) (ELISA buffer) and then blocked with Blocker Casein (Thermo Fisher Scientific). The plate was washed with ELISA buffer, the biotinylated human TROP2 antigen (Accession Number: P09758; the extracellular domain was purified by the method known to a person skilled in the art and the C-terminal Avi tag sequence was then biotinylated) diluted to 1 μg/ml with PBS was added at 50 μl/well, and the resultant was then agitated for 30 minutes at room temperature. […] The plate was washed with ELISA buffer, the SuperSignal Pico ELISA chemiluminescent substrate (Thermo Fisher Scientific) was added, and chemiluminescence 10 minutes thereafter was then assayed using a plate reader.
(§2) The resultant was then added to the plate comprising the human TROP2 antigen immobilized thereon at 50 μl/well. The bound scFv was detected using the HRP-labeled anti-FLAG antibody (Sigma-Aldrich) diluted to 5,000-fold with ELISA buffer.

The target in assay [2] is T1, biotinylated human TROP2 antigen. The assay can be described thus: ELISA, immobilised biotinylated human TROP2 antigen, anti-FLAG-HRP detection; after MMP1 pre-treatment. (ELISA stands for enzyme-linked immunosorbent assay.)
Description: as §1, §2
The target is the same in assay [3]. The description is as above. The source holds these as a separate data set.
Description: as §1, §2
The target is the same in assay [4]. The assay can be described thus: ELISA, immobilised biotinylated human TROP2 antigen, anti-FLAG-HRP detection; without MMP1. This is another data set of the same source.
Description: as §1, §2
Assay [5] has the same target. As to the kind of experiment: ELISA, immobilised biotinylated human TROP2 antigen, chemiluminescence; after uPA pre-treatment (mask linker cleaved).
Description: (§3) NeutrAvidin (Thermo Fisher Scientific) diluted to 1 μg/ml with PBS was added at 50 μl/well to a 96-well Maxi-sorp plate (Black, Nunc) and immobilized at 4° C. overnight. The plate was washed with PBS containing 0.05% (w/v) Tween-20 (BioRad) (ELISA buffer) and then blocked with Blocker Casein (Thermo Fisher Scientific). The plate was washed with ELISA buffer, the biotinylated human TROP2 antigen (Accession Number: P09758; the extracellular domain was purified by the method known to a person skilled in the art and the C-terminal Avi tag sequence was then biotinylated) diluted to 1 μg/ml with PBS was added at 50 μl/well, and the resultant was then agitated for 30 minutes at room temperature. […] The plate was washed with ELISA buffer, 50 μl of the horseradish peroxidase (HRP)-labeled anti-human IgG antibody (Jackson Immuno Research Laboratories) diluted to 2,500-fold with ELISA buffer was added, and the resultant was then agitated for 30 minutes at room temperature. The plate was washed with ELISA buffer, the SuperSignal Pico ELISA chemiluminescent substrate (Thermo Fisher Scientific) was added, and chemiluminescence 10 minutes thereafter was then assayed using a plate reader.
For assay [6] the target is unchanged. The assay can be described thus: ELISA, immobilised biotinylated human TROP2 antigen, chemiluminescence; without uPA.
Description: as §3
For assay [7] the target is unchanged. The assay can be described thus: ELISA with and without uPA.
The target is the same in assay [8]. The assay can be described thus: ELISA, immobilised biotinylated human TROP2 antigen, chemiluminescence; after MMP1 pre-treatment (mask linker cleaved).
Assay [9] shares this target. As to the kind of experiment: ELISA pH 7.5 against pH 5.5.
Assay [10] has the same target. The assay can be described thus: ELISA with and without MMP1.
Assay [11] has the same target. As to the kind of experiment: ELISA, immobilised biotinylated human TROP2 antigen, chemiluminescence; pH 5.5.
Assay [12] has the same target. The assay can be described thus: ELISA, immobilised biotinylated human TROP2 antigen, chemiluminescence; pH 7.5.
For assay [13] the target is unchanged. The assay can be described thus: ELISA, immobilised biotinylated human TROP2 antigen, chemiluminescence; pH 5.5. The source holds these as a separate data set.
The target is the same in assay [14]. Described as above. This is another data set of the same source.
Assay [15] has the same target. As to the kind of experiment: ELISA, immobilised biotinylated human TROP2 antigen, chemiluminescence; pH 7.5. The source holds these as a separate data set.
Assay [16] has the same target. The assay is described as above. The source holds these as a separate data set.
For assay [17] the target is unchanged. The assay can be described thus: ELISA, immobilised biotinylated human TROP2 antigen, chemiluminescence; pH 5.5. The source holds these as a separate data set.
Description: The plate was washed with PBS containing 0.05% (w/v) Tween-20 (BioRad) (ELISA buffer) and then blocked with Blocker Casein (Thermo Fisher Scientific). The plate was washed with ELISA buffer, the biotinylated human TROP2 antigen (Accession Number: P09758; the extracellular domain was purified by the method known to a person skilled in the art and the C-terminal Avi tag sequence was then biotinylated) diluted to 1 μg/ml with PBS was added at 50 μl/well, and the resultant was then agitated for 30 minutes at room temperature. […] The plate was washed with ELISA buffer, 50 μl of the horseradish peroxidase (HRP)-labeled anti-human IgG antibody (Jackson Immuno Research Laboratories) diluted to 2,500-fold with ELISA buffer was added, and the resultant was then agitated for 30 minutes at room temperature. The plate was washed with ELISA buffer, the SuperSignal Pico ELISA chemiluminescent substrate (Thermo Fisher Scientific) was added, and chemiluminescence 10 minutes thereafter was then assayed using a plate reader. […]
Assay [18] has the same target. As to the kind of experiment: ELISA, immobilised biotinylated human TROP2 antigen, chemiluminescence; pH 6.0.
Assay [19] has the same target. The assay can be described thus: ELISA, immobilised biotinylated human TROP2 antigen, chemiluminescence; pH 7.5. The source holds these as a separate data set.
For assay [20] the target is unchanged. The description is as above. This is another data set of the same source.
The target is the same in assay [21]. As to the kind of experiment: ELISA, immobilised biotinylated human TROP2 antigen, chemiluminescence; pH 5.5. This is another data set of the same source.
Assay [22] has the same target. The assay can be described thus: ELISA, immobilised biotinylated human TROP2 antigen, chemiluminescence; pH 6.5.
Assay [23] has the same target. The assay can be described thus: ELISA, immobilised biotinylated human TROP2 antigen, chemiluminescence; pH 7.5. This is another data set of the same source.
For assay [24] the target is unchanged. Described as above. The source holds these as a separate data set.

B1: HT1-11-scFv-HL (scFv)
scFv: ADVNSQVQLVQSGAEVKKPGASVKVSCKASGYTFTTAGMQWVRQAPGQGLEWMGWINTHSGVPKYAEDFKGRVTISADTSTSTAYLQLSSLKSEDTAVYYCARSGFGSSYWYFDVWGQGTLVTVSSGGGGSGGGGSGGGGSDIQMTQSPSSLSASVGDRVTITCKASQDVSTAVAWYQQKPGKAPKLLIYSASYRYTGVPSRFSGSGSGTDFTLTISSLQPEDFAVYYCQQHYITPLTFGQGTKLEIKRGAPSGDYKDDDDKGAAAHHHHHH
notes: Unmasked scFv (VH-VL) expressed in E. coli, purified by Ni Sepharose; Full-length entry
As a reminder, the EC50 (read off the curve) is the concentration at which the effect is half-maximal. On to B1, for which the “EC50 (read off the curve)” value in [1] and in [2] was approximately 5 nM in each case.

B2: HT1-11-scFv-LH (scFv)
scFv: ADVNSDIQMTQSPSSLSASVGDRVTITCKASQDVSTAVAWYQQKPGKAPKLLIYSASYRYTGVPSRFSGSGSGTDFTLTISSLQPEDFAVYYCQQHYITPLTFGQGTKLEIKRGGGGSGGGGSGGGGSQVQLVQSGAEVKKPGASVKVSCKASGYTFTTAGMQWVRQAPGQGLEWMGWINTHSGVPKYAEDFKGRVTISADTSTSTAYLQLSSLKSEDTAVYYCARSGFGSSYWYFDVWGQGTLVTVSSGAPSGDYKDDDDKGAAAHHHHHH
notes: Unmasked scFv (VL-VH) expressed in E. coli; Full-length entry
With B2, the “EC50 (read off the curve)” value in assay [3] and in assay [4] was approximately 3 nM throughout.

B3: anti-TROP2 masked antibody MHT1009 (antibody)
heavy: not shown
light: DIQMTQSPSSLSASVGDRVTITCKASQDVSTAVAWYQQKPGKAPKLLIYSASYRYTGVPSRFSGSGSGTDFTLTISSLQPEDFAVYYCQQHYITPLTFGQGTKLEIKRTVAAPSVFIFPPSDEQLKSGTASVVCLLNNFYPREAKVQWKVDNALQSGNSQESVTEQDSKDSTYSLSSTLTLSKADYEKHKVYACEVTHQGLSSPVTKSFNRGEC
notes: Full-length entries
Turning to B3, the concentration for a half-maximal effect (EC50 (read off the curve)) in assay [5] is approximately 1 nM; in assay [6] it was approximately 90 nM. For the same molecule, the “EC50 ratio of binding intensity (without uPA / with uPA)” value in assay [7] is 83.

B4: anti-TROP2 masked antibody MHT1811 (antibody)
heavy: not shown
light: B3 light
notes: Full-length entries
B4: the 50% effective concentration (EC50 (read off the curve)) in assay [8] was approximately 0.6 nM; in [11], approximately 1 nM; in [12], approximately 30 nM. Moreover, in assay [9], the “EC50 ratio (neutral pH conditions/acidic pH conditions)” value was 28.1. In addition, in assay [10], the “EC50 ratio (without the addition of MMP1/with the addition of MMP1)” value turned out to be 48.4.

B5: anti-TROP2 masked antibody MHT1808 (antibody)
heavy: not shown
light: B3 light
notes: His cluster linker; Full-length entries
In the case of B5, the “EC50 (read off the curve)” value in assay [13] is approximately 1 nM; in assay [14], approximately 1 nM; in [15] it was approximately 20 nM; in [16], approximately 30 nM; in assay [17] it was approximately 2 nM; in [18] it was approximately 4 nM. Also, the “EC50 (read off the curve)” value in assay [19] is approximately 50 nM.

B6: anti-TROP2 masked antibody MHT1810 (antibody)
heavy: not shown
light: B3 light
notes: His at every other position in the linker; Full-length entries; also called HMT1810
B6: the “EC50 ratio (neutral pH conditions/acidic pH conditions)” value in assay [9] was 7.8. Moreover, the “EC50 (read off the curve)” value in [20] is approximately 60 nM; in assay [21], approximately 7 nM.

B7: anti-TROP2 masked antibody MHT1806 (antibody, human IgG1, kappa)
heavy: not shown
light: B3 light
B7: the “EC50 (read off the curve)” value was approximately 50 nM in assay [22], approximately 200 nM in assay [23] and approximately 200 nM in assay [24]. In addition, in assay [9], the “EC50 ratio (neutral pH conditions/acidic pH conditions)” value was determined as 38.8.

For the origin of these results see patent publication US20250170255A1 (Daiichi Sankyo, published 2025).
